From patent publication US20170260266A1 (GlaxoSmithKline, published 2017)
Numbering of substitutions follows the chain as printed. Where “and” joins values, the source holds several entries; their conditions need not be identical. Identical values can stand only once. Values belong to the binder of their own block, whether it stands above or below them.

Legend:
[1] = target: T1, full length (mature) human TSLP, recombinant (human, UniProt Q969D9 29-159, biotinylated in the SPR assay on the SA chip); experiment: SPR, biotinylated TSLP on SA chip (Biacore 4000)
T1 construct: also called hTSLP; Human TSLP from E. coli

[2] = target: T1, full length (mature) human TSLP, …; experiment: ELISA RBA, geometric mean
[3] = target: T1, full length (mature) human TSLP, …; experiment: cell-based or functional assay
[4] = target: T1, full length (mature) human TSLP, …; experiment: SPR, biotinylated TSLP on SA chip; all concentrations (footnote 1)
[5] = target: T1, full length (mature) human TSLP, …; experiment: SPR, biotinylated TSLP on SA chip; value excluding 1000 nM concentration
[6] = target: T2, short form TSLP (synthetic biotinylated 63 amino acid peptide comprising residues 69-131 of mature full … (human, biotinylated (position not given))); experiment: ForteBio Octet, biotinylated sfTSLP on streptavidin tips
T2 construct: also called sfTSLP; sf TSLP

[7] = target: glycosylated recombinant human TSLP expressed from HEK cells (human, UniProt Q969D9 29-159, glycosylated); experiment: cell-based or functional assay
human IL-7 = target: T3, human IL-7 (human, UniProt P13232 26-177); experiment: SPR (Biacore)
T3 construct: Immobilised on a CM4 chip by primary amine coupling; also called Mature processed human IL-7
T3 sequence: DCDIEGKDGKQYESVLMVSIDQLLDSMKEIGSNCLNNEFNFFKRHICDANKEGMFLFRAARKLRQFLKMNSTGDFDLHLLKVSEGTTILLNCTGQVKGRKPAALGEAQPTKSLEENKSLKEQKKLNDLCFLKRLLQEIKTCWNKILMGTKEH

[8] = target: T1, full length (mature) human TSLP, …; experiment: cell-based or functional assay; remark: listed apart in the source
[9] = target: T1, full length (mature) human TSLP, …; experiment: RBA, geometric mean (n = 2)
[10] = target: T1, full length (mature) human TSLP, …; experiment: cell-based or functional assay; remark: listed apart in the source
[11] = target: T4, native human TSLP (supernatant from stimulated human lung fibroblasts) (human, UniProt Q969D9 29-159); experiment: cell-based or functional assay
[12] = target: T1, full length (mature) human TSLP, …; experiment: SPR with biotinylated TSLP; mean of two experiments
[13] = target: T4, native human TSLP (supernatant from …); experiment: TSLP receptor binding assay (RBA, ELISA, OD 450 nm): dAb titrated against native human TSLP (supernatant of stimulated human lung fibroblasts); blocked is the binding of TSLP to the plate-coated TSLP receptor complex
[14] = target: T1, full length (mature) human TSLP, …; experiment: TSLP receptor binding assay (RBA, ELISA, OD 450 nm): dAb titrated against recombinant human TSLP (1 ng/ml); blocked is the binding of TSLP to the plate-coated TSLP receptor complex

T2 sequence (peptide, as listed by the source): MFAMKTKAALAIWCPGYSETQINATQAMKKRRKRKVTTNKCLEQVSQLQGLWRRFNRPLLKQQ

B1: DOM30h-440-65 (other)
VL: DIQMTQSPSSLSASVGDRVTITCRASRPIRNWLDWYQQKPGKAPKLLIWGASHLQSGVPSRFSGSGSGTDFTLTISSLQPEDFATYYCMQIGEDPVTFGQGTKVEIKR
Kd [1]: 3.84 nM
IC50 [2]: 0.69 nM
pSTAT5 assay in SW756 cells, Geometric Mean IC50 [3]: 0.78 nM

B3: DOM30h-440-64 (other)
VL: B1 VL with M89L
Kd [1]: 6.17 nM
IC50 [2]: 0.95 nM
pSTAT5 assay in SW756 cells, Geometric Mean IC50 [3]: 3.26 nM

B4: DOM30h-440-53 (other)
VL: B1 VL with M89L, I91V
Kd [1]: 3.05 nM
IC50 [2]: 2 nM
pSTAT5 assay in SW756 cells, Geometric Mean IC50 [3]: 1.92 nM

B8: DOM30h-440-63 (other)
VL: B1 VL with E93S
Kd [1]: 4.22 nM
IC50 [2]: 1.55 nM
pSTAT5 assay in SW756 cells, Geometric Mean IC50 [3]: 2.21 nM

B10: DOM30h-440-54 (other)
VL: B1 VL with M89W, I91L, G92A, E93F, V96T
Kd [1]: 3.82 nM
IC50 [2]: 2.15 nM
pSTAT5 assay in SW756 cells, Geometric Mean IC50 [3]: 1.52 nM

Now from value to binder:

Kd [1]: 2.47 nM
IC50 [2]: 0.56 nM
pSTAT5 assay in SW756 cells, Geometric Mean IC50 [3]: 0.99 nM
B2: DOM30h-440-56 (other)
VL: B1 VL with I75V

Kd [1]: 2.78 nM
IC50 [2]: 0.87 nM
pSTAT5 assay in SW756 cells, Geometric Mean IC50 [3]: 1.1 nM
B5: DOM30h-440-55 (other)
VL: B1 VL with M89V

Kd [4]: 3.48 nM
Kd [5]: 1.5 nM
IC50 [2]: 0.34 nM
pSTAT5 assay in SW756 cells, Geometric Mean IC50 [3]: 0.56 nM
B6: DOM30h-440-57 (other)
VL: B1 VL with K45E, E93D

Kd [1]: 0.14 nM
IC50 [2]: 0.32 nM
pSTAT5 assay in SW756 cells, Geometric Mean IC50 [3]: 0.7 nM
B7: DOM30h-440-60 (other)
VL: B1 VL with M89I, I91F

Kd [1]: 2.65 nM
IC50 [2]: 1.41 nM
pSTAT5 assay in SW756 cells, Geometric Mean IC50 [3]: 1.91 nM
B9: DOM30h-440-58 (other)
VL: B1 VL with M89L, G92A, E93D

binding result [6]: no binding
Inhibition of TSLP-induced TARC in whole blood, Geometric Mean IC50 (n = 6) [7]: 3.1 nM
Inhibition of TSLP-induced pSTAT5 in SW756 cells, Geometric Mean IC50 (n = 3) [7]: 0.55 nM
binding result (human IL-7): no binding
Inhibition of TSLP-induced TARC in whole blood, Geometric Mean IC50 (n = 7) [8]: 2.4 nM
Inhibition of TSLP-induced pSTAT5 in SW756 cells, Geometric Mean IC50 (n = 5) [8]: 1.92 nM
IC50 [9]: 1.94 nM
IL-5 production from human PBMC stimulated with a mixture of TSLP, IL-33 and IL-25, Geometric Mean IC50 [10]: 129 nM
native TSLP-induced STAT5 phosphorylation in SW756 cells, Geometric Mean IC50 [11]: 0.86 nM
Kd [12]: 0.867 nM and 0.87 nM
koff [12]: 0.000508 s⁻¹
kon [12]: 619000 M⁻¹ s⁻¹
IC50 (read off the curve) [13]: ~0.1 nM
IC50 (read off the curve) [14]: ~4 nM
B11: DOM30h-440-81/86 (other)
VL: DIQMTQSPSSLSASVGDRVTITCRASRPIRNWLDWYQQKPGKAPKLLIWGASHLQSGVPSRFSGSGSGTDFTLTISSLQPEDFATYYCVQIGEDPVTFGQGTKVEIK
notes: Vk single variable domain (dAb); DOM30h-440-55 with the C-terminal R removed (-R); also called DOM30h-440-86; TSLP dAb
